This series in a line: label from the status in PepcDB records.

In the case of “MIIVHHLNNSRSQRILWLLEELGLPYEIKRYQRDPKTNLAPPELKAIHPLGKSPVIEDGPHVVIESGAIVDYLIRRHGDGRLQPDPASATYDEYVQWLHFAEGSAILPLMLNLYVGRLGDAGAPLHPRIHSELANYLGYLNEALGLTPYLLGDELSGADIQMSFIGEFAKMQGMLQPHPNLAAWVQRCQERPAYRQALEQGGEYSFAK”, the protein production entry is on record as “failed”. With “MIIVYTTFPDWESAEKVVKTLLKERLIACANLREHRAFYWWEGKIEEDKEVGAILKTREDLWEELKERIKELHPYDVPAIIRIDVDDVNEDYLKWLIEETKK” the entry was “not failed”; with “MIIYNIVYPMILILLYEYLAVNYFKGDKSITSSYYYVIVLIPFFIFTNIITMAYVAKDESLSKTAYRFLSAPIDNSAIVLSKIISCTVISWGCSLILLIISKVLLSVNFEGSTLKILILFFTENFMAAAIGIFLGIVMKNFKTIKGILNIPISILGVLGGCFFPVGALGRTFEKVSYISPFTWINRGIISEVYDKSQTILVGTILVTLVFGIIFSIGASILFNKEVFL”, “failed”; with “MIKETVFKSFDTPAALEQQLANKIASQLQEAVDARGKASLVVSGGSTPLKLFELLSMKSIDWSDVYITLADERWVDVEDSASNERLVREHLLQNRAANAKFRGLKNMFSTAEAGADMTCESLSNFPRPFDVVVLGMGNDGHTCSWFPCSAELNDALTTQALCVATNPTTAPHGRITLSKNAILNSRQIYLHLVGEQKLSVYRQALENDDVNAMPIRAVLAQRKTPVDVFWSA”, “failed”. With “MIKPTPVAGTSLDRVDGVAKVTGQARYAGEYPEVGLLHGSVVSSTIARGRVLNIDSTQAMRVPGVIAVLDHGHRPHISSYDDDYSDADAAQGAPFRPLFDDRVLYNGQPLALVVAQTLELARYAGSLIRIEYAEEAHQTDLGACQQSHAAPAETPPPRGDFAAQFARAPVQVDATYLTANEYHNPMEPHASTVLYKGDGTLEIHDKTQGTQNCQDYLHKVFGLPKANIRVRAAFVGGAFGSGLRPQYQLPLAVMAALHLQRSVRVTLTRQQMFTFGYRPRTEQRLRLGADANGQLLAIAHDALGQTSRFEDFTEHVVEWSGMLYQCDNVALSYRLASLDVYTPLDMRAPGAASGMIALECAMDELACAAQIDPLDLRRRNFAASNANEGKPYSSKELLTCYRQGAERFGWQNRNPQPRSMRHGNQLVGWGMAGGVWEAMQMKASAKARFDAQGHLTVSSATTDIGTGTYTVMTQIAADAAGARVQDVTFVLGDSSLPTAPLQGGSFTVSSVGSAVRQACQVLRTKVLEHARRMYPQVASTAREQIIFADGYLHAGSHRLALADIIASAPEGEFEVQIDAEPGARRQPFSTATHSAVFAEVHVDEDLGTIKVVRVVSAVAAGRVINPKTARSQILGGVVWGVGMALHEAALTDHRLGRIVNHNLAEYHIPVNADSGDIEVIFVEEHDDIVNELGSKGVGEIGVVGVAAAVANAVYHATGKRVREFPITLDKLLKDNSQV” the entry was “failed”; with “MIKRILTVLLLFPTLVCAQINTERVMTIARNALYFEDYVLSIQYFNQVINAKPYLYEPYFFRALAKVNLEDYQGAEADCDEAIKRNPFVVGAYQVRGLARIRQSKFDGAIEDYQKALHYDPENITLWHNLTLSHIQKKDYDAAKEDLESLLKVSPRYTRAYLMRGEVSLQQKDTVAALKDFNTALELDKYDPDAWSARAIVRLQQSNYAEAESDLDRAIHLSAKNAGNYINRALARFHQNNLRGAMSDYDLALDIDPNNFIGHYNRGLLRARVGDDNRAIEDFDFVIQMEPDNMMAIFNRALLRAQTGDYRGAIKDYTTVINQYPNFLAGYYHRAEARKKIGDKKGAEQDDFKLLKAQLDKQNGGTNKDVAQNQNKDKENQSGENGDESEEGKTRKKSDKNMNNYRKIVIADDSEADQRYTSDYRGRVQDKNVNIKLEPMFALTYYEKSSEVKRSVNFHKFIEDLNLSNVLPKRIRITNMEAPLTEEQVKFHFALIDAHTSAIVDDDKSAPKRFARAIDFYLVQDFSSAVADLTQAILLDGDFFPAYFMRALIRCKQLEYQKAEQAAEADMPSGAAVKEVSAVDYEVVRKDLDKVITLAPDFVYAYYNRANVAAMLKDYRAAIVDYDKAIQLSPDFADAYFNRGLTHIFLGNNKAGISDLSKAGELGVVSAYNVIKRFTDQTE”, “failed”.

As to “MIKYLIVMLIPFVIVYLLMPKFIEFANEKGFVDKPTGRKKHDKLTPLIGGVVMYIGFFATYLFGIDSTRQLSQTFIIFIASTLVIIIGVIDDYYKGKGKEFPIYPRVIIQILAATMVFKAGIVFRGITNPFTGEFTQFSGWIQYILTITWIFGVTTVINWSDGMDGLAGSISIISAMTMFVVALAKGQFNSAYMSITLVGSILAFLRYNRHPARVFMGDSGANFLGFILAIIALEGAFKQATALSILVPVLALGVPIFDNIFVIFRRFQSGKPVYEADRSQIHYRLQERGMSVKQIVSYICILSGCLSLVSLLIIMIIL”, the protein production entry was “failed”. With “MILAILQARMSSTRLPGKVLMPLQRQPMIVRQIERVARSKRIDKLVVATSDRPEDDAIEAAVRREGIAVFRGSLDNVQQRFIGALDAHPADHVVRLTADCPLADPTLIDATIDLCLSKGADYVSNTPEGHAHPKGTDVEVMTAAALRRAAAEATTKEAFEHVTWDLWNQPQRWTCAWLPCFPDQGAVRWTVDRPDDYAFVAAVYDALYPANRAFTSDDIRAFVAGRPDLQDYGGDRRALEHHHHHH” the entry was “failed”; with “MILFADYNTPYLFAISFVLLIGLLEIFALICGHMLSGALDAHLDHYDSITTGHISQALHYLNIGRLPALVVLCLLAGFFGLIGILLQHACIMVWQSPLSNLFVVPVSLLFTIIAVHYTGKIVAPWIPRDHSSAITEEEYIGSMALITGHQATSGNPCEGKLTDQFGQIHYLLLEPEEGKIFTKGDKVLIICRLSATRYLAENNPWPQIL”, “failed”; with “MILIKKFATVASGTLMSRIFGFVREMLMAAALGTGPVSDAFNAAFRFPNTFRRFFAEGAFNAAFVPLFAKRITEDGQETACKFAEEVFGVLFSLLLLLTIAMELSMPFLVRTIIAPGFAEDATKFNATIHFTAIMFPYLTCMSLAAMMGGMLNALRRYFIAAIAPLFLNIILISVLAYAWIYQLDTWHIGLNLSWGVLAAGLLQLTLIAAALRQSGMKIFLRRPRFSSNVRKLLTLAFPAAITGGITQINLLINTNIASSQSGAVSSLMYADRLYQLPLGVIAIAIATVLLPELTRALRSKNHKETHNLQNRSIELTLLLTLPASVAFLILSTPIVSLLFERGQFTSLSTHYVAQLLKLYGLGLPAFVLIKIFIPNFFAHEDTKTPMIITGICVFINISLALILFPILSARGIVIAEITSGWMNALLLWTILIQRGYWKYDIQLIKRITCLIITTLLNTIALYYVFDVIDFLSFPLSSQASFFLRASTLAGIMVAILLVHCFAYFLLDTRSFFLTLKNFKKRL”, “failed”. The value for “MILKTKLFGKVYQFTSVKEVLAKANEEKSGDKLAGVAANSAEERVAAKVVLSELSLNDLFNNPVVDYDEDEVTRIIIDQVNMRIFESIKHWTVAELREFILSSETTDFDIKRISRGLTSEMIAAVCKLMSNMDLIVGAKKINIEKTANTTIGRPGTFSNRLQPNHPTDNVDGIMASVMEGLSYGAGDALIGLNPVDDSTESVKRILNKFEEFRSEWEIPTQTCVLAHVTTQMEAMRQGAPTGLVFQSIAGSEKGNTAFGLNAEILAEAQDLALHSGQAAGPNVMYFETGQGSELSSEANFGADQVTMEARCYGLAKKFDPYIVNTVVGFIGPEYLYDSKQVIRAGLEDHFMGKLTGISMGCDVCYTNHMKADQNDMENLAMLLATAGCTYIMGIPHGDDVMLNYQTTGFHETATIRETLGLRPIKEFEEWMEKMGLMENGKLTSRAGDASVFIK” was “not failed”; that for “MILNLDTNIFNHGLSRHNILAFSQGFPIGLPCRNWIEVGLRLRLRLLLELAVGNFPQGFKIHLSGSFQAVRLALFSSFTSLRTDELLLIETRPSYLSSVQVWGKGRPLLLLLTKREQPALQANREPPARFESLRAGKQEEADRAKASPLLASALPEAVEVGTRSRRSRGSSCGFRVKLAHCQKANRSSYLDQRTLIPGRQQGLRVEGMNQVSWLRIGGMGVRSVPSSPSPRLRLLETGDRVFLRRLAASPFNKGFQWQQTAPQDEAKNGVGGLPVVRASKWLAGPRKHNERDDRSSTRPEIDVLLP” was “failed”; that for “MILNRQTVALMTAGLLAFNSCSLKQMVKMAKDQELTVTPSPLEVHGDSVAFDISATLPVKMLKKNKIYSVSTFYKSGDNKVELGSFDFVSTDYPDAKTTAPQIKKHQAFAYKPEIGNGDLLAVGTASNLDKTKTKSTEEFPIAKGLITTSRLVKDYSYVAYADHGYNNKEELIASTVNFYFEQGKSVLRSSEMKGQNAKFLDAFITAKHVTRTISVIGQHSPEGTETKNTNLANERSVVIEKYVKARMKHFKQDSLVNTIQFVTKGDIKDFEPMKAEIAKSTKLTPEQKSELLNIIAGSGDFTSKQQQIEKLPYYNKSVLAQLYPSLRTARTEIWTVKPKKTDAQISLLAGQITSGKVSVDTLSVEELGYAGTLTPILSEKAAIYEALAKKTDNWVAYNNLGAVYVEMAKVEVDQNKKTELVNKAINTLEMSIKKQDNGEAHVNLASAYILSGVKTSARDEANKAVASNASDAVKKGANGILGTVDIKDGKYELALQDFSKSNDSIQVKFNTALASLLKKDFNTAKAGFANYTAAAPNDAAGFYLAAVTAARLKDEATLTTNLKKAKQLSPKFGERAVSDMEFYDYWNSDNFKNALK” was “failed”.

For the sequence “MINDALKPYLEEKIESAKKTVPSFALEELKQKIISSPIQFGKSDIDDLVANLLKRYEQTKENSLIGKIDSIFKEISDMEKVMSGKAAEPAQPAEKPKKKAKLEAIGDDVVSIMVSLRWLEFLLDNYGPENTLDVLDYYESLGWISSTVKEQMMKYAKMTGVMNPAQEYKIKPSIQDHIINMLFIEKLRGEEINRDLIEALEREFRTIRKGVDELYGI”, the protein production result is listed as “failed”. The value for “MINLWKNGYDMVYGIRNRTTESWLKRVLTQAYYRILNLSSPIDIPESAGDFRLLDAKVVEAIKQLPEKNRYMKGLYAWVGFKSIGINFSEQERQHGHSSFNLKSLFNLAMSGLTGFSDLPLRVCIYLGAILALGAMSYGVWIIIKTLIEGISIPGWATLAAGMTLLGGIQLLFIGILGEYIGRIYAEVKNRPKYIISTEHSRTKQEHSIAHQENTFSSF” was “failed”; that for “MINPKVITRILANTDLKTKMRLAKVVPKLGKSDDVTKCMLCPNMCLHVCPVFDAERRLTVSPSVKSRLAYLGETEEAIYHCLPCDACKNACPMDISVNDNLRGYRGGERAMKAIERFEKSMRKVEVEPRDGKILYFPGCSTFESGLFDVTVEVLEKLGVDFAVKNLECCGMPYYELGLVDKFRGKISSLKDAAAKYEGVISNCPHCVHVMRENGIKAAHLLAVLKPVKIGGDVSYHDPCILARKLDIVEEPRRLLAEMGFVVHEPVFNGKDTHCCGYGGVYRFVVPEMAEKVAERRMEHFEHQIVTLCPSCRMALKAKDIVEIIAEGL” was “failed”. The value for “MINSFKSVFLTIRYFIQNDLATQASALTYRTILSIVPMLAVLIGIAKGFGIQQVVHDWLKEYLPGHQQELEQALGYVENYLAQVQGGIFVGVGLIVLLYTVFSLIATVEDTFTDIWQTNKRRTWKRRVIDYMGAFFLLPILITASSGLTLMMTTIKGTYFSEYILFGPMLELILNLIPYVIIVLLFTGMYIVLPTVNVRFWPAFISGVLAGIVFQIFQALYISGILWISKYNAIYGSFAAVPLLLLWIQLSWTIVLFGAQLSFSIQNVRKFAFERDTTNVSRRYIDFITIVVASLIVKRFISDERRPHTADSLAEESKAPIRLVSEAIHRLLSIEAITEVNYAHDPKAEFFSPAIDPEKITVGFILDRIDRYGSEHFKVDNKVRFAPEWQAIEDSRQSLHIPPADTLLKNL” was “failed”.

These data come from a protein production outcome set (Wang et al. 2014).
